One data set deals with T1, APSL-DAHF.
T1 chain: APSLDAHF

Another data set concerns the target T2, ASNL-DAHF.
T2 chain: ASNLDAHF

The next data set has as its target T3, DETL-DAHF.
T3 chain: DETLDAHF

For another data set, the target named is T4, EI(Thi)(Thi)-(Nva)AHF.
T4 chain: EIXXXAHF

Another data set addresses T5, EIDL-MVLD.
T5 chain: EIDLMVLD

The target of a further data set is T6, EIDL-SSHD.
T6 chain: EIDLSSHD

A further data set concerns the target T7, EVNF-EVEF.
T7 chain: EVNFEVEF

The next data set has as its target T8, EVNL-DAEF.
T8 chain: EVNLDAEF

A further data set concerns the target T9, EVNL-DAHF.
T9 chain: EVNLDAHF

For a further data set, the target named is T10, EVNL-SSHD.
T10 chain: EVNLSSHD

B1: BACE enzyme (beta-secretase) (protein)
chain: ETDEEPEEPGRRGSFVEMVDNLRGKSGQGYYVEMTVGSPPQTLNILVDTGSSNFAVGAAPHPFLHRYYQRQLSSTYRDLRKGVYVPYTQGKWEGELGTDLVSIPHGPNVTVRANIAAITESDKFFINGSNWEGILGLAYAEIARPDDSLEPFFDSLVKQTHVPNLFSLQLCGAGFPLNQSEVLASVGGSMIIGGIDHSLYTGSLWYTPIRREWYYEVIIVRVEINGQDLKMDCKEYNYDKSIVDSGTTNLRLPKKVFEAAVKSIKAASSTEKFPDGFWLGEQLVCWQAGTTPWNIFPVISLYLMGEVTNQSFRITILPQQYLRPVEDVATSQDDCYKFAISQSSTGTVMGAVIMEGFYVVFDRARKRIGFAVSACHVHDEFRTAAVEGPFVTLDMEDCGYNIPQTDESTLMTIAY
Regarding B1, the “Percent Cleavage after 10 hr Incubation with BACE” value with APSL-DAHF was 0.5%; with ASNL-DAHF, “Not Detected”; with DETL-DAHF, 1%; with EI(Thi)(Thi)-(Nva)AHF, 25%; in the data set with EIDL-MVLD, 20%; in the data set with EIDL-SSHD, 5%. Also, the “Percent Cleavage after 10 hr Incubation with BACE” value with EVNF-EVEF was found to be 85%; in the data set with EVNL-DAEF, 50%; with EVNL-DAHF it was 50%; with EVNL-SSHD, 3.5%.

Values taken from US8859223.
